Experimental data as given in the DeepSol protein solubility set.

Test: soluble on expression in E. coli; label from the status in PepcDB or PDB records
In the case of “MNLYLITFQSSLNRIESVYDCHKDLFVEIEKFFTLHLVPYTEAASIPADAYRMAFIASGGVEKMVTQHFELLPYPIHLLTDGQQNSLAASLEIATWIRSKGMKVHIIHGTIPNMVKQLIDHHKAFAAQREVRGKRIGVVGYSSPWLVASNVDYLLAKRRWGIEFIDIPMEEVYCLFYQIKDDDIGYEASVFANRAIACREGTPEDLLKAMRLYQAVKIICEKKKLDAVTLSCFSLIEKLGTTGCLALALLNDEGIPAGCEGDLQSIFTLLIAKTLTGQAGFMANPAFINDDQNEIVMAHCTIATKMVDQFIIRNHFETETGIAIQGILHPGGITMIKCAGECLDEYFVSTGQLIENTNYINACRTQARIKLDKPVDYFMRNPLGNHHIILMGDHEKVIHEFMQLNSCKLVE”, the “soluble on expression in E. coli” value is reported as “not soluble”. With “METAPDEAPTEFLEPGEEIVENVIEEEVVHEEDVEHHEEDGEMIEVQHEEVLEEIVEEDGMMFDTDGRVIEYSDVMVYEEGTEVIEEYVEVEDLGDGRYAYVMTDDIGHRRLLKPHEVEAVKKMPGMMEEEVVMDDEKAPNTSYAAAQKRGRFPPQARSSLSPQKPRAAGAYMGPEAYYQQPKRMTHMAKVDVEKYSPVTPVNRRPLMDNAIFKSKLPRKSAPWQEETAANGGPQSTSLIRSPSPMLKEPLFDDNEIRFKCAECGDGFPVMDRLCDHMIKQHDCQTNVREVQFFADRDFENFLLKVEKATLGRDPEDAIRKKSRAGSSQLFVCNYMNKGRQKMAELVEVGIVGLSERPLEVCTAFVQKTHGYECIRVKYCDQHIHYDGNIGFRVPIAVKRRLFEMSFKRLPIPCMQIMLGLEAEQLLPHPTRFEEKLKNLSHVEIIELLQIINASLRKHQEVEPRGKKVPIKFETIKSSEGSQTLMVKRVTPPKKEHMDYDEPDPNIPSTSAQALGYNPDDDEGDDVPMMSREEEVLDDETGEESVMTEDCDGMMEDNMCSFLVFFCWRKNGEK” the “soluble on expression in E. coli” value was “not soluble”. With “MKQPTLAVIMTCHNRRNTTLACLQALYQQKNHFDVYLTDDGSTDGTAEFIKAEYPDVKIFQGDGNLFWVGGMHLAFGEAIKNQYDYYLWLNDDTFLEADALEKLLQVHENLAVEGYGQSIVVGSTQDPITKQATYGGAVKSKKWYSNKFEFLEPTSDVQKCDAMYGNCVLIPHSVTLKVGNIDTAFIHSLGDLDYALRARNLGLEHHHHHH” the “soluble on expression in E. coli” value was “not soluble”. With “MAFVPPQAGYDRAITVFSPDGRLFQVNYAREAVKRGATAVGVKCNEGVVLAVEKRITSRLIEPESYEKIFQIDDHIAAASSGIIADARVLVNRARLEAQIHRLTYGEPAPLAVIVKKICDLKQMHTQYGGVRPFGAALLMAGVNEKPELYETDPSGAYFAWKAVAIGSGRNTAMAIFEEKYKDDMSLEEAIKLAIFALAKTMEKPSAENIEVAIITVKDKKFRKLSREEIEKYLNEVMKEVEEEEVKEKEEDYSELDSHY” the “soluble on expression in E. coli” value was “soluble”. With “MTKNPRNNKPKKILDSSYKSKTIWQNYIDALFETFPQLEISEVWAKWDGGNVTKDGGDAKLTANIRTGEHFLKAREAHIVDPNSDIYNTILYPKTGADLPCFGMDLMKFSDKKVIIVFDFQHPREKYLFSVDGLPEDDGKYRFFEMGNHFSKNIFVRYCKPDEVDQYLDTFKLYLTKYKEMIDNNKPVGEDTTVYSDFDTYMTELDPVRGYMKNKFGEGRSEAFVNDFLFSYK” the “soluble on expression in E. coli” value was “soluble”. With “GSFIDIEFPEWFHEGLSRHQAENLLMGKDIGFFIIRASQSSPGDFSISVRHEDDVQHFKVMRDTKGNYFLWTEKFPSLNKLVDYYRTTSISKQKQVFLRD” the “soluble on expression in E. coli” value was “soluble”. For “MRGSHHHHHHTDPALRADIIFYHPTFDTQWWIEALRKAIPQARVRAWKSGDNDSADYALVWHPPVEMLAGRDLKAVFALGAGVDSILSKLQAHPEMLNPSVPLFRLEDTGMGEQMQEYAVSQVLHWFRRFDDYRIQQNSSHWQPLPEYHREDFTIGILGAGVLGSKVAQSLQTWRFPLRCWSRTRKSWPGVQSFAGREELSAFLSQCRVLINLLPNTPETVGIINQQLLEKLPDGAYLLNLARGVHVVEDDLLAALDSGKVKGAMLDVFNREPLPPESPLWQHPRVTITPHVAAITRPAEAVEYISRTIAQLEKGERVCGQVDRARGYGLCGR”, the “soluble on expression in E. coli” value was “soluble”. For “MMGSAYWEKLVPQINPPKVPSAVEGLGIPASVVENLVLKHLAAYPKCDLVELTQRLCVVSNIVELALAQLRKRSWVEVYQPASDKLSHSYSNVRYSLTEFGLAEADIAYRKDPYIGPVPVSLEDYWTVVEGQDLRKNPIMRADVERALSDVFGSEHLIPVLGPAINSGRAMLLYGHAGTGKSYVAAR”, the “soluble on expression in E. coli” value was “not soluble”. In the case of “MEFKDFPLKPEILEALHGRGLTTPTPIQAAALPLALEGKDLIGQARTGTGKTLAFALPIAERLAPSQERGRKPRALVLTPTRELALQVASELTAVAPHLKVVAVYGGTGYGKQKEALLRGADAVVATPGRALDYLRQGVLDLSRVEVAVLDEADEMLSMGFEEEVEALLSATPPSRQTLLFSATLPSWAKRLAERYMKNPVLINVIK”, the “soluble on expression in E. coli” value is reported as “soluble”. With “MEIDWLNAIPDSEDSEEDEEERQERARLLKEKEEEREACKKRYLERIEREEAQRFGKQFKIDPLTFAERLERKLIPAEKKQRYREFIPCVVDHFGGTDVHFVKAMESIKTENQLLDFLTAAHKPLIEQTEDSVLHDWLAEFYKETVTSLLEMTSITDHDLKCFKVGNVFDEVRTNAIQKKVQKMEMENFAERVREAKIKEAEERKATAEATRDVLESLEGMTLSHVKHDELEDELNTIALEELHSTTRDTSPPRTRLSTRAQSQLNAMVKHLFVPAAPTTSTEVPMEMDKDDDEMDAYDDSDLKILFSSTTKESLKMEMGEENDECNFEPSQVSKYPSFQASSQFDETRRYDYDEEGDNKELARLRRPTWRKILNYEKRIGTNFHRFTNAENANLWRRNLYEDKRKKTSKVQFVDYDSPLNKMRLFVRPNEQFFNADDGPMTDRIDFSLSDGFNVLATRKIMSPLVCGSNYDCEFMARTREGPQYLVRKTQSWMHSYCGNILGRFWYLRDRHADKYPGVKDSNYDQKRRQNFGLLRYYTLEELIEVFGLLLPDVQIAMRRGVRRENMPVSTVVKLKEKDREAVESPVQGVLLLTDWRLVHLFDNTAIVNAIIHYFPTNLGGVFFEAMTEYLTELLLDNTIEFHTIIFAFGGTPTFKKQDFLAFWKKLIVRTTQSIDVFWMAQDWCDGLNSTQEEIDQLNEFNHYVEQMFTMMRKNGNINYNYCDIRKQYNIPSLDPSFNRPNDFLLLEPIYRAYINHFVDECNCYLKGPFVKCQPRVHNGYAQRNGTKLEFSK” the “soluble on expression in E. coli” value was “soluble”. In the case of “MRNQELARIFEEIGLMSEFLGDNPFRVRAYHQAARTLYDLDTPIEEIAEKGKEALMELPGVGPDLAEKILEFLRTGKVRKHEELSRKVPRGVLEVMEVPGVGPKTARLLYEGLGIDSLEKLKAALDRGDLTRLKGFGPKRAERIREGLALAQAAGKRRPLGAVLSLARSLLEAIRALPGVERAELCGSARRYKDTVGDLDFLVASREGERAVEGFVRLPQVKEVYAKGKERATVFLKNGLQVDLRVVPPESYGAGLQYLTGSKAHSIRLRALAQEKGLKLSEYGVFRGEKRIAGETEEEVYAALGLPWIPPPLREDQGEVEAALEGRLPKLLELPQVKGDLQVHSTYSDGQNTLEELWEAAKTMGYRYLAVTDHSPAVRVAGGPSPEEALKRVGEIRRFNETHGPPYLLAGAEVDIHPDGTLDYPDWVLRELDLVLVSVHSRFNLPKADQTKRLLKALENPFVHVLAHPTARLLGRRAPIEADWEAVFQKAKEKGVAVEIDGYYDRMDLPDDLARMAYGMGLWISLSTDAHQTDHLRFMELAVGTAQRAWIGPERVLNTLDYEDLLSWLKARRGV”, the “soluble on expression in E. coli” value is reported as “soluble”. In the case of “MTISLRRTGILKFGIGLVALTIAASVQAKTLVYCSEGSPEGFNPQLFTSGTTYDASSVPIYNRLVEFKIGTTEIEPSLAERWEVSEDGKTYTFYLRKGVKWQDNKDFKPTRDFNADDVIYSFMRQKDDKNPYHKVSGGSYEYFQGMGMGDLITNVVKVDDNTVRFELTRPESPFLADLAMDFASILSAEYADNMLKAGTPEKVDLNPIGTGPFQLQQYQKDSRILYKAFPGFWGTKPKIDRLVFSITPDASVRYAKLQKNECQIMPYPNPADIARMKEDKTINLMEQPGLNVGYLSFNIEKKPLDNLKVRQALTMAVNKDAIIDAVYQGAGQAAKNLIPPTMWGYNDDVKDYAYDPAKAKELLKEAGLPDGFSIDLWAMPVQRPYNPNARRMAEMIQSDWAKIGVKAKIVTYEWGEYLKRAKDGEHETVMMGWTGDNGDPDNFFATLFSCDAAKQGSNYSKWCYKPFEDLIQPARAEADHDKRVALYKQAQVVMNEQAPALIIAHSTVYEPVRKEVKGYVVDPLGKHHFDNVSLD”, the “soluble on expression in E. coli” value is reported as “not soluble”. In the case of “MGSDKIHHHHHHMTYELSTDREFDLIAIGRACIDLNAVEYNRPMEETMTFSKYVGGSPANIVIGSSKLGLKAGFIGKIADDQHGRFIESYMRGVGVDTSNLVVDQEGHKTGLAFTEIKSPEECSILMYRQDVADLYLSPEEVNEAYIRRSKLLLVSGTALSKSPSREAVLKAIRLAKRNDVKVVFELDYRPYSWETPEETAVYYSLVAEQSDIVIGTREEFDVLENRTEKGDNDETIRYLFKHSPELIVIKHGVEGSFAYTKAGEAYRGYAYKTKVLKTFGAGDSYASAFLYALISGKGIETALKYGSASASIVVSKHSSSDAMPSVEEIEALIEKDETITIA”, the “soluble on expression in E. coli” value is reported as “not soluble”. For “MVNFVAKDIYTKDSIQRGGQDVIIEKHEIQIDQITSGKVNIFTFYRNRKQIDDHFLRLQEPSLTANYFFHFHFDAESLHLLQKEFPSVYPYDGSETIHDWTEKMKAELQHQIQTGKWNKRVRIGNRILDVVFTWCDEDIVE”, the “soluble on expression in E. coli” value was “not soluble”. In the case of “MHCLSDFIPWNQVSVTGDFVGHIQELIRTEVLPYQWEALNDQIAGAEPSHCLDNFRAAAEKKGHIQFHGQPFQDSDIYKWIEAAAYTLAWHPDSDLEAKADQAIELICGAQQPDGYLNTYFILTGAQRWTHLLDGHELYCAGHLMEAAVAYYHATGKDKLLKAAQKLADHIADVFGTSPGKIPGYPGHPEVELALIRLFEATGNIKYQQLAQYFICQRGASPSIFRKEADQFGWDWADSPFQFQFYQAGKPILEQTELEGHAVRALYLCCGIADVAARTQDAALLETCRRLWEDLTQTKLYITGGAGSSVYGEAFTFAYDLPNDTAYAETCAAVAVCFFAQRMMKISPSGAYGDVLEQALYNGVLSGMALDGKSFFYVNPLEVVPEACQKDQRKKHVKPIRQKWFACACCPPNLARLFASIGGYLHFIRAETLYTNLYVTSTSEFTFQGLPIKLHMDSAYPFDEKIHISLSLPRPMEFSYAVRIPAWCADYHVLINGKICAGTLKDGFLYLHRCWRDGDEVELTLSMPVRVVRANSLVRENIGKSAICRGPIVYCMEQTDNGPQLHRNRICGKPSFTISSGEENLKGLPCISCSGEYLLPDGTQLYTSAKESFQPKTLRFIPYFAWCNRSPGEMAVWVRHDTILEHHHHHH”, the “soluble on expression in E. coli” value is reported as “soluble”. For “MSLSSSCIEEVSVPDDNWYRIANELLSRADITINGSAPSDIRVKNPDFFKRVLQEGSLGLGESYMDGWWECERLDIFFSKVLRAGLENQLPHHVKDTLRILGARLINLQSKKRAWIVGKEHYDLGNDLFSRMLDPYMQYSCAYWKDADTLEAAQQAKLKLICEKLQLQPGMRVLDIGCGWGGLSQYMATHYGVSVVGVTISAEQQKMAQTRCEGLDVSILLEDYRDLNDQFDRIVSVGMFEHVGPKNYNTYFEVVDRNLKPDGLFLLHTIGSKKTDHNVDPWINKYIFPNGCLPSVRQIAEASESHFVMEDWHNFGADYDTTLMAWHERFINAWPEIAGNYNERFKRMFSYYLNACAGAFRARDIQLWQVVFTRGVENGLRVPREGHHHHHH”, the “soluble on expression in E. coli” value was “soluble”. With “MRGYLGKAQQNALINEAQSYPLTRPQIQVFGRYHAIPRQQVWYGDLGCDYLYSGLFIRALPWPKYLQKLRDKLQRDFELGSNGVLVNRYADGQDCMGAHSDDEPEIAHGSDIASISLGATRDFVIKHKHSKQKCCISLHSGDLLIMHWPMQRDWLHSVPKRLKVTEPRWNYTFRQLVVNYHGLEHHHHHH” the “soluble on expression in E. coli” value was “not soluble”. For “QSIEKLYAEFETEPIASASIAQVHKARLHSGEQVAVKVLRPNLLPVIEQDLSLMRFGAGWVERLFADGKRLKPREVVAEFDKYLHDELDLMREAANASQLGRNFQNSDMLIVPKVFYDYC”, the “soluble on expression in E. coli” value was “not soluble”.
